Experimental data taken from a protein production outcome set (Wang et al. 2014).

experiment: label from the status in PepcDB records

| Sequence | protein production |
| --- | --- |
| MHFRLILSMIVVTHTAVVQVLIHMEWIADPSIWAGLVTLVVIELVLGIDNLVFIAILAEKLPPAQRDRARITGLMLAMVMRLLLLASISWLVTLTKPLIVFHDFSFSARDLIMLFGGLFLLFKATVELNERLEGKDSDNPTQRKGAKFWAVVAQIVVLDAIFSLDSVITAVGMVDHLAVMMAAVVIAISLMLMASKALTRFVNSHPTIVILCLSFLLMIGFSLIAEGFSFIIPKGYLYAAIGFSVMIEALNQLAQFNRRRFLSANMTLRQRTTEAVMNLLSGQKEKAELDADTASLVADQDQHPLFNPQERLMIERVLNLNQRSVSSIMTSRHDIERINLSAPEEEIRSLVEKNQHTRLVVTGGKDNEDLLGVVHVIDLLQQSLRQEPLDLQALVRQPLVFPEGLPLLSALEQFRQARTHFAFVVDEFGSVEGIVTLSDVMETIAGNLPNEVEEIDARHDIQHHQDGSWTVNGHMPLEDLVQYVPLPLDDKREYHTVAGLLMEYLQHVPQVGETIEIDGYTLRTLQVDSHRVQKVQIVPPVKQDELDYEV | failed |
| MHFTRALRIQLIPSFFFRAIYPLVVLLILLHAQSGLAETIYRSTDSHGRTLYSDIPTPAAKPLQPATPPARSKYRVTRVIDGDTIVLENNKRVRLLGINAPETGNRYHPGEPGGADAKKWLRGKLQGRSVYLEHDRQTHDHYKRMLAHLYLPDGEHINLSLVEKGLAIANLIPPNLLHANTLIRAQQRAETRKLGIWSMQHYQPRPLIKLTEKPFGWQRYRVKAKVLKRNHRFSRLIISDNLDLSFANRDLALFPPLETYLNRPLEVRGWVSRRKNHFSIRIQHPSALILY | failed |
| MHGVEFAPLERQHGSQVLALLRGTLLVPLPRLHQRLEEAYERDARLGLAQVALCRLAGNAEKVVGVLLARVATRRTCCAQVYIDAVAVDAVFQGQGIGSRLLLRVLTPCLPDGLEVREVFLHTPLQATELVAFYRSCGFESDDEVIDNYYPRRWMPQAQALVLRWRPPTAAQHQHEERKGPQDADVS | not failed |
| MHIPLWHSRVPSATLSRSHSVLLPLSLTAHSPKRARLVAMSTNPEIPQWFALTPRVWTTSVEPESVTCGLVAGEDHVLLIDTGSTPEQGHTLAMSAARMLGRPVDRIVVTHHHYDHSGGLPGITDAEVWMHEAALAHCPDLHVDHPVSLMAYVNLGGLGAEVIHPGPAHTDGDLIVIVRDEKITFVGDLVETAGEPQSDGTTDVRGWPRAIDSVITGTDGAGLYVPGHGQPIDATDVMNQRAQLAERIPTNIPLTDRHIPLP | failed |
| MHKYRLVAKKGEGTFSEVLKAQCIKNGKYVAIKCMKNHFDSLDQVNNLREIQALRRLSPHANIIKLLEVLYDQPTGRLALVFELMDMNIYELIRGRRHYVAEERIKNYMYQLMKSMDHMHRNGIFHRDIKPENILIMDDCLKLADFGSCRGIYSKQPYTEYISTRWYRAPECLLTDGYYNYKMDMWGVGCVFFEIVSLFPLFPGTNELDQITKIHNILGTPPPDLLAKMKKRSAHMDFNFPPKEGSGVAKLIPHVNPECVDLIVKLLMYNPDERLSARQALRHPYFRDLREAEKRQKALLAPDVSNHFTAMEADKARQQQTVSSTGSDHEHPTSAGGDGGAGTGAVGTHDGSAAAAAAAAALPSISGARGHAGPEGGHDNDMG | not failed |
| MHLVNIRNQPLGNTIIQVLGVMAFGLFAAVVYMKTSNLIFAIVVHAMNDFMAIMASSGSLSSQQTNPLTILYEWFIFGTLAFALFYTGWTQREKFIAAIQERSPQLTARKLPTLAQSSTFRRIFALVSMIYGILILPTMLLFSKLSTSAGSRAEIANKALPIYLLFLLGIALYIFLIVFFDFHLGNLCWLLLPYIGGPVFALIALVNGARPLTEKTNQSKTINNKTPN | failed |
| MHMALIHSILMGAVAGMRSMTPLAAVANAARTGKLPADNGAPALLANPLASAGMLALAGGELAGDKMKTAPDRIVLPGMIARIATGVIVGTALAPREQRGIAALLGATTAVAAAYLTFNARMRAIERYGQTSTGVVEDAISVGAATLIVRDAAKR | failed |
| MHNHNNRLVITPGEPAGVGPDLAITLAQQDWPVELVVCADPALLLARASQLNLPLQLREYQADQPAIAQQAGSLTILPVKTAVNVVPGKLDVGNSHYVVETLAKACDGAISGEFAALVTGPVQKSIINDAGIPFIGHTEFFADRSHCQRVVMMLATEELRVALATTHLPLLAVPGAITQASLHEVITILDNDLKTKFGITQPQIYVCGLNPHAGEGGHMGHEEIDTIIPALNTLRQQGINLIGPLPADTLFQPKYLQHADAVLAMYHDQGLPVLKYQGFGRAVNITLGLPFIRTSVDHGTALELAATGTADVGSFITALNLAIKMINNSNE | not failed |
| MHNLVPAPKQTQSVLIKNATVHTVIQGVLTNTDVLIENGKISALGPQLSTNTTASTQVVDASGKHLYPGLIALDTSLGLEHHHHHH | failed |
